Test results from patent US20230348564A1, “ANTI-CANCER PROTEINS” (UNICHEM LABORATORIES LTD, priority 2020, published 2023).

What was measured:
Type in all cases: cell-based, Human
[1] = test system: MDA-MB-231; test: Annexin-V staining (flow cytometry); settings: 24 h
Description: (§1) The cell lines were maintained in DMEM+10% FBS (heat inactivated) at 37° C. with 5% CO2, and 95% humidity. Antibiotics Penicillin (100 U/mL) and Streptomycin (100 μg/mL) were added to the medium.
(§2) The stock solution of recombinant lectin having the amino acid sequence of SEQ ID NO. […] Doxorubicin was used as positive control and stock solution was prepared in DMSO.
(§3) Cells were counted using hemocytometer and plated in culture plates at the density of 0.4×10^6 cells/well in DMEM+10% FBS in 6-well plates. Cells were incubated overnight to allow the cell recovery and exponential growth. Following overnight incubation, cells were treated with Lectin having the amino acid sequence of SEQ ID NO. 2 in DMEM+0% FBS at concentrations ranging from 2.5 μg/mL to 80 μg/mL. Untreated cells were included as Control group for sample. Cells treated with Doxorubicin were included as Positive Control group. DMSO treated cells were included as control group for Doxorubicin. After treatment, cells were incubated for a time period of 24 h.
(§4) Following incubation, the pro-apoptotic effect was estimated using Annexin assay kit as follows: Annexin reagent contains Annexin-V+7-AAD stain, which differentially labels apoptotic cells in different phases. Four populations of cells can be determined from the flow cytometric plots as follows: • a) Upper Left (UL)—7-AAD(+)/Annexin(−) or Necrotic cells • b) Upper Right (UR)—7-AAD(+)/Annexin(+) or Late apoptotic cells • c) Lower Left (LL)—7-AAD(−)/Annexin(−) or Viable/non-apoptotic cells • d) Lower Right (LR)—7-AAD(−)/Annexin(+) or Early apoptotic cells
(§5) Cells were gently harvested into pre-labeled sterile centrifuge tubes and centrifuged at 300×g for 5-7 min. Supernatant were discarded and the pellet was resuspended in 200 μl of fresh culture medium.
(§6) 100 μl of cell suspension was transferred into pre-labeled sterile centrifuge tubes.
(§7) 100 μl of Annexin-V reagent was added to each tube and incubated for 30 min at RT in dark.
(§8) Cells stained for Annexin-V were then transferred into 96-well plates and acquired on flow cytometer (Guava technologies). Percentage of cells in early apoptotic, late apoptotic and necrotic phase were determined.
(§9) Fold increase in apoptotic cells (treated with Test Items) was determined as compared to Control (untreated cells).

[2] = test system: PANC-1; test: Annexin-V staining (flow cytometry); settings: 24 h
Description: as §1, §2, §3, §4, §5, §6, §7, §8, §9

[3] = test system: Contactin-1; test: biomarker levels in IOMM-Lee by multiplex analysis; settings: 1 μg/mL-80 μg/mL, 48 h
Description: (§10) Effect of SEQ ID No 2 on the expression of following 7 biomarkers were estimated in Human Meningioma cell line (IOMM-Lee) using multiplex analysis: TNF-alpha, VEGF, VEGFR2, HGF, HGFR/c-MET, PDGF-BB, and Contactin-1. Levels of another marker, Notch-1 were also estimated by ELISA in the same cell line. These 8 biomarkers play very crucial role in the pathogenesis and progression of Brain Tumor. […] Supernatants were collected and the levels of these 8 markers were investigated.

[4] = test system: HGFR/c-MET; test: biomarker levels in IOMM-Lee by multiplex analysis; settings: 1 μg/mL-80 μg/mL, 48 h
Description: as §10

[5] = test system: HGF; test: biomarker levels in IOMM-Lee by multiplex analysis; settings: 1 μg/mL-80 μg/mL, 48 h
Description: as §10

[6] = test system: PDGF-BB; test: biomarker levels in IOMM-Lee by multiplex analysis; settings: 1 μg/mL-80 μg/mL, 48 h
Description: as §10

[7] = test system: TNF-α; test: biomarker levels in IOMM-Lee by multiplex analysis; settings: 1 μg/mL-80 μg/mL, 48 h
Description: as §10

[8] = test system: VEGFR2; test: biomarker levels in IOMM-Lee by multiplex analysis; settings: 1 μg/mL-80 μg/mL, 48 h
Description: as §10

[9] = test system: VEGF; test: biomarker levels in IOMM-Lee by multiplex analysis; settings: 1 μg/mL-80 μg/mL, 48 h
Description: as §10

B1: SEQ ID NO. 2: recombinant lectin; variant of the S. rolfsii lectin amino acid sequence (reported as Rec-2 in WO 2010/095143) (protein)
chain: TYKITVRVYQTNPDAFFHPVEKTVWKYANGGTWTITDDQHVLTMGGSGTSGTLRFHADNGESFTATFGVHNYKRWCDIVTNLAADETGMVINQQYYSQKNREEARERQLSNYQVKNAKGRNFQIVYTEAEGNDLHANLIIG
modifications: In vitro synthesis
% Population of cells, LL Annex− 7AAD− Viable ([1]; 2.5 μg/mL): 75.7% | % Population of cells, LR Annex+ 7AAD− Early apoptotic ([1]; 2.5 μg/mL): 7.9% | % Population of cells, UL Annex− 7AAD+ Necrotic ([1]; 2.5 μg/mL): 3.2% | % Population of cells, UR Annex+ 7AAD+ Late apoptotic ([1]; 2.5 μg/mL): 13.2% | Fold increase (wrt control), LR Annex+ 7-AAD− ([1]; 2.5 μg/mL): 15.8 fold | Fold increase (wrt control), UL Annex− 7-AAD+ ([1]; 2.5 μg/mL): 4.6 fold | Fold increase (wrt control), UR Annex+ 7-AAD+ ([1]; 2.5 μg/mL): 22.0 fold | % Population of cells, LL Annex− 7AAD− Viable ([1]; 5 μg/mL): 72.3% | % Population of cells, LR Annex+ 7AAD− Early apoptotic ([1]; 5 μg/mL): 7.0% | % Population of cells, UL Annex− 7AAD+ Necrotic ([1]; 5 μg/mL): 12.5% | % Population of cells, UR Annex+ 7AAD+ Late apoptotic ([1]; 5 μg/mL): 8.2% | Fold increase (wrt control), LR Annex+ 7-AAD− ([1]; 5 μg/mL): 14.0 fold | Fold increase (wrt control), UL Annex− 7-AAD+ ([1]; 5 μg/mL): 17.9 fold | Fold increase (wrt control), UR Annex+ 7-AAD+ ([1]; 5 μg/mL): 13.7 fold | % Population of cells, LL Annex− 7AAD− Viable ([1]; 10 μg/mL): 64.1% | % Population of cells, LR Annex+ 7AAD− Early apoptotic ([1]; 10 μg/mL): 5.8% | % Population of cells, UL Annex− 7AAD+ Necrotic ([1]; 10 μg/mL): 20.6% | % Population of cells, UR Annex+ 7AAD+ Late apoptotic ([1]; 10 μg/mL): 9.5% | Fold increase (wrt control), LR Annex+ 7-AAD− ([1]; 10 μg/mL): 11.6 fold | Fold increase (wrt control), UL Annex− 7-AAD+ ([1]; 10 μg/mL): 29.4 fold | Fold increase (wrt control), UR Annex+ 7-AAD+ ([1]; 10 μg/mL): 15.8 fold | % Population of cells, LL Annex− 7AAD− Viable ([1]; 20 μg/mL): 58.5% | % Population of cells, LR Annex+ 7AAD− Early apoptotic ([1]; 20 μg/mL): 2.9% | % Population of cells, UL Annex− 7AAD+ Necrotic ([1]; 20 μg/mL): 32.7% | % Population of cells, UR Annex+ 7AAD+ Late apoptotic ([1]; 20 μg/mL): 5.9% | Fold increase (wrt control), LR Annex+ 7-AAD− ([1]; 20 μg/mL): 5.8 fold | Fold increase (wrt control), UL Annex− 7-AAD+ ([1]; 20 μg/mL): 46.7 fold | Fold increase (wrt control), UR Annex+ 7-AAD+ ([1]; 20 μg/mL): 9.8 fold | % Population of cells, LL Annex− 7AAD− Viable ([1]; 80 μg/mL): 61.0% | % Population of cells, LR Annex+ 7AAD− Early apoptotic ([1]; 80 μg/mL): 5.3% | % Population of cells, UL Annex− 7AAD+ Necrotic ([1]; 80 μg/mL): 26.0% | % Population of cells, UR Annex+ 7AAD+ Late apoptotic ([1]; 80 μg/mL): 7.7% | Fold increase (wrt control), LR Annex+ 7-AAD− ([1]; 80 μg/mL): 10.6 fold | Fold increase (wrt control), UL Annex− 7-AAD+ ([1]; 80 μg/mL): 37.1 fold | Fold increase (wrt control), UR Annex+ 7-AAD+ ([1]; 80 μg/mL): 12.8 fold | % Population of cells, LL Annex− 7AAD− Viable ([2]; 2.5 μg/mL): 87.7% | % Population of cells, LR Annex+ 7AAD− Early apoptotic ([2]; 2.5 μg/mL): 0.5% | % Population of cells, UL Annex− 7AAD+ Necrotic ([2]; 2.5 μg/mL): 10.8% | % Population of cells, UR Annex+ 7AAD+ Late apoptotic ([2]; 2.5 μg/mL): 1.0% | Fold increase (wrt control), LR Annex+ 7-AAD− ([2]; 2.5 μg/mL): 5.0 fold | Fold increase (wrt control), UL Annex− 7-AAD+ ([2]; 2.5 μg/mL): 1.0 fold | Fold increase (wrt control), UR Annex+ 7-AAD+ ([2]; 2.5 μg/mL): 2.5 fold | % Population of cells, LL Annex− 7AAD− Viable ([2]; 5 μg/mL): 81.3% | % Population of cells, LR Annex+ 7AAD− Early apoptotic ([2]; 5 μg/mL): 0.4% | % Population of cells, UL Annex− 7AAD+ Necrotic ([2]; 5 μg/mL): 15.5% | % Population of cells, UR Annex+ 7AAD+ Late apoptotic ([2]; 5 μg/mL): 2.8% | Fold increase (wrt control), LR Annex+ 7-AAD− ([2]; 5 μg/mL): 4.0 fold | Fold increase (wrt control), UL Annex− 7-AAD+ ([2]; 5 μg/mL): 1.5 fold | Fold increase (wrt control), UR Annex+ 7-AAD+ ([2]; 5 μg/mL): 7.0 fold | % Population of cells, LL Annex− 7AAD− Viable ([2]; 10 μg/mL): 78.7% | % Population of cells, LR Annex+ 7AAD− Early apoptotic ([2]; 10 μg/mL): 0.0% | % Population of cells, UL Annex− 7AAD+ Necrotic ([2]; 10 μg/mL): 20.8% | % Population of cells, UR Annex+ 7AAD+ Late apoptotic ([2]; 10 μg/mL): 0.4% | Fold increase (wrt control), UL Annex− 7-AAD+ ([2]; 10 μg/mL): 2.0 fold | Fold increase (wrt control), UR Annex+ 7-AAD+ ([2]; 10 μg/mL): 1.0 fold | % Population of cells, LL Annex− 7AAD− Viable ([2]; 20 μg/mL): 71.5% | % Population of cells, LR Annex+ 7AAD− Early apoptotic ([2]; 20 μg/mL): 0.0% | % Population of cells, UL Annex− 7AAD+ Necrotic ([2]; 20 μg/mL): 28.1% | % Population of cells, UR Annex+ 7AAD+ Late apoptotic ([2]; 20 μg/mL): 0.4% | Fold increase (wrt control), UL Annex− 7-AAD+ ([2]; 20 μg/mL): 2.7 fold | Fold increase (wrt control), UR Annex+ 7-AAD+ ([2]; 20 μg/mL): 1.0 fold | % Population of cells, LL Annex− 7AAD− Viable ([2]; 80 μg/mL): 72.8% | % Population of cells, LR Annex+ 7AAD− Early apoptotic ([2]; 80 μg/mL): 0.0% | % Population of cells, UL Annex− 7AAD+ Necrotic ([2]; 80 μg/mL): 26.7% | % Population of cells, UR Annex+ 7AAD+ Late apoptotic ([2]; 80 μg/mL): 0.5% | Fold increase (wrt control), UL Annex− 7-AAD+ ([2]; 80 μg/mL): 2.6 fold | Fold increase (wrt control), UR Annex+ 7-AAD+ ([2]; 80 μg/mL): 1.3 fold | Percentage inhibition on levels of Contactin-1 [3]: 0.3%-27.2% | Percentage inhibition on levels of HGFR/c-MET [4]: 5.5%-19.3% | Percentage inhibition on levels of HGF [5]: 43.8%-93%^ | Percentage inhibition on levels of PDGF-BB [6]: 33.6%-100% | Percentage inhibition on levels of TNF-α [7]: 16.8%-42.3% | Percentage inhibition on levels of VEGFR2 [8]: 17.8%-22.5% | Percentage inhibition on levels of VEGF [9]: 3.9%-49.3%
